For one protein, Vmax and Km results are on record in ChEMBL document CHEMBL6109039, “Designed and synthesized novel tripeptides targeting diabetes and its related pathologies” (Eur J Med Chem, 2025).

Compound in series [1]: N=C(N)NCCC[C@H](N)C(=O)N[C@@H](Cc1c[nH]c2ccccc12)C(=O)N[C@@H](Cc1c[nH]c2ccccc12)C(=O)O
Kind of series: Inhibition of porcine pancreatic Alpha-amylase using starch as substrate assessed as maximum velocity pre-incubated for 20 mins followed by substrate addition and measured after 15 mins by Lineweaver-Burk plot analysis (reference value: 0.666). The following applies: Sus scrofa; time 35.0 min.

Compound in series [2]: N=C(N)NCCC[C@H](N)C(=O)N[C@@H](Cc1c[nH]c2ccccc12)C(=O)N[C@@H](Cc1c[nH]c2ccccc12)C(=O)O
Kind of series: Inhibition of porcine pancreatic Alpha-amylase using starch as substrate assessed as Km pre-incubated for 20 mins followed by substrate addition and measured after 15 mins by Lineweaver-Burk plot analysis (reference value: 0.657 mM). The following applies: Sus scrofa; time 35.0 min.

B1: Pancreatic alpha-amylase (Sus scrofa), P00690 (protein)
chain: MKLFLLLSAFGFCWAQYAPQTQSGRTSIVHLFEWRWVDIALECERYLGPKGFGGVQVSPPNENIVVTNPSRPWWERYQPVSYKLCTRSGNENEFRDMVTRCNNVGVRIYVDAVINHMCGSGAAAGTGTTCGSYCNPGNREFPAVPYSAWDFNDGKCKTASGGIESYNDPYQVRDCQLVGLLDLALEKDYVRSMIADYLNKLIDIGVAGFRIDASKHMWPGDIKAVLDKLHNLNTNWFPAGSRPFIFQEVIDLGGEAIQSSEYFGNGRVTEFKYGAKLGTVVRKWSGEKMSYLKNWGEGWGFMPSDRALVFVDNHDNQRGHGAGGASILTFWDARLYKVAVGFMLAHPYGFTRVMSSYRWARNFVNGQDVNDWIGPPNNNGVIKEVTINADTTCGNDWVCEHRWRQIRNMVWFRNVVDGQPFANWWANGSNQVAFGRGNRGFIVFNNDDWQLSSTLQTGLPGGTYCDVISGDKVGNSCTGIKVYVSSDGTAQFSISNSAEDPFIAIHAESKL
The term Km denotes the concentration of substrate that gives half-maximal velocity. As to B1, in series [1], the Vmax was 0.574. The Km in series [2] stood at 704 µM.
